Values joined by “and” are separate entries in the source; they are usually repeats but may differ in a detail not shown here. Equal entries are not always repeated.

These results are taken from patent publication US7488598B2, “Mutant purine nucleoside phosphorylase proteins and cellular delivery thereof” (priority 2001, dated 2009).

The target in one data set is E. coli PNP mutant M65V (Escherichia coli, UniProt P0ABP8, M65V).
The subject of data set [1] is tumor expressing wild-type enzyme. The data set is described as follows: Anti-tumor response of tumors expressing wild-type enzyme. It is filed as in vivo.
The next data set concerns the target wild-type E. coli PNP (Escherichia coli, UniProt P0ABP8). The conditions noted are these: Table III; 100 μM substrate; HPLC; average of separate experiments.
For data set [2] the following is noted: in vivo, 3 days.
Data set [3] in a line: E. coli PNP enzyme activity with substrate MeP-dR. The conditions noted are these: for Activity, MeP-dR: Table IV, 0 denotes no measurable activity; for Activity, MeP-dR / Percent of Control Activity, MeP-dR: substrate MeP-dR; for Percent of Control Activity, MeP-dR: percent of wild-type activity.
Data set [4] can be described thus: E. coli PNP enzyme activity with substrate talo-met. The conditions noted are these: Table IV, 0 denotes no measurable activity.
The nature of data set [5]: E. coli PNP enzyme activity with substrate α-L-lyxo. The conditions noted are these: Table IV, 0 denotes no measurable activity.
The nature of data set [6]: E. coli PNP enzyme activity with substrate F-araA. To be noted: percent of wild-type activity.
Data set [7] can be described thus: E. coli PNP enzyme activity with substrate talo-acet. The conditions noted are these: Table IV, 0 denotes no measurable activity.
Data set [8] can be described thus: E. coli PNP enzyme activity with substrate allo-acet. To be noted: Table IV, 0 denotes no measurable activity.
A short description of data set [9]: E. coli PNP enzyme activity with substrate 5′-NH2. To be noted: Table IV, 0 denotes no measurable activity.
The nature of data set [10]: E. coli PNP enzyme activity with substrate 5′CONH2. The conditions noted are these: Table IV, 0 denotes no measurable activity.
The nature of data set [11]: E. coli PNP enzyme activity with substrate 5′-S-phenyl. To be noted: Table IV, 0 denotes no measurable activity.
Data set [12] in a line: E. coli PNP enzyme activity with substrate allo-met. The conditions noted are these: Table IV, 0 denotes no measurable activity.
Where [13] appears, read: Table III, 100 μM substrate, HPLC, average of separate experiments.

Chain of wild-type E. coli PNP (P0ABP8 whole entry): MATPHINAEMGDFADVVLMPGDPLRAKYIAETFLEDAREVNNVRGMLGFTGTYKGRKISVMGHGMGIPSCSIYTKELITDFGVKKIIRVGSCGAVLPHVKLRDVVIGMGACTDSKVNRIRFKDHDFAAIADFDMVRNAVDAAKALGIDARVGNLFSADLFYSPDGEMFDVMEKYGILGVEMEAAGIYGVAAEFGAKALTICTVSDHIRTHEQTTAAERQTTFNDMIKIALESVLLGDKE

For the molecule `Nc1nc(F)nc2c1ncn2[C@@H]1O[C@H](CO)[C@@H](O)[C@@H]1O` [F-araA, 9-(β-D-arabinofuranosyl)-2-fluoroadenine], the “M65V, crude extract, rate of cleavage” value at E. coli PNP mutant M65V (setting [13]) is 904 nmol/mg/h. Further, the tumor response result in data set [1] was “complete responses”. Moreover, at wild-type E. coli PNP, the “Wild type, pure enzyme, rate of cleavage” value is on record as 1,250 nmole/mg/hr.

Take `Cc1ncnc2c1ncn2[C@@H]1O[C@H]([C@H](C)O)[C@@H](O)[C@H]1O` [5′-methyl(talo)MeP-R, 9-(6-deoxy-α-L-talofuranosyl)-6-methylpurine]: at E. coli PNP mutant M65V (Example 16 analysis), the “activity of mutant M65V PNP compared with wild-type PNP (in words)” value is “more activity”. In addition, at E. coli PNP mutant M65V (M65V versus wild-type PNP), the “Activity of M65V mutant greater than wild-type PNP” value is on record as 38 fold. Further, the “M65V, crude extract, rate of cleavage” value at E. coli PNP mutant M65V (setting [13]) is given as 75,000 nmole/mg/hr. On E. coli PNP mutant M65V (Table III, pure enzyme, 100 μM substrate, HPLC, average of separate experiments), the “M65V, pure enzyme, rate of cleavage” value was 76,000 nmole/mg/hr. The “M65V cleavage of substrate relative to wild-type enzyme cleavage of F-araA” value on E. coli PNP mutant M65V (compared with wild-type enzyme cleaving F-araA) is recorded as 80 times. Moreover, the “human dosage determined from mouse tolerated dose” value in data set [2] came out at 600 mg/m^2. For the same molecule, the “less toxic to human cells in culture than F-araA” value in the data set on human cells in culture was “over 40 fold”. Further, the “Wild type, pure enzyme, rate of cleavage” value on wild-type E. coli PNP turned out to be 915 nmol/mg/h.

B1: Wild-type: wild-type E. coli purine nucleoside phosphorylase (PNP) (protein, UniProt P0ABP8 2-239, looked up)
Purine nucleoside …: ATPHINAEMGDFADVVLMPGDPLRAKYIAETFLEDAREVNNVRGMLGFTGTYKGRKISVMGHGMGIPSCSIYTKELITDFGVKKIIRVGSCGAVLPHVKLRDVVIGMGACTDSKVNRIRFKDHDFAAIADFDMVRNAVDAAKALGIDARVGNLFSADLFYSPDGEMFDVMEKYGILGVEMEAAGIYGVAAEFGAKALTICTVSDHIRTHEQTTAAERQTTFNDMIKIALESVLLGDKE
Turning to B1, in [3], the “Activity, MeP-dR” value is given as 740,000 nmoles/mg/hour and the “Percent of Control Activity, MeP-dR” value is reported as 100%. The “Activity, talo-met” value in data set [4] was 962 nmol/mg/h. Further, the “Activity, α-L-lyxo” value in data set [5] was determined as 4500 nmol/mg/h. Further, the “Percent of Control Activity, F-araA” value in [6] stood at 100%. Further, the “Activity, talo-acet” value in data set [7] was found to be 0 nmol/mg/h. The “Activity, allo-acet” value in [8] came out at 0 nmol/mg/h. Also, in data set [9] (listed as WT), the “Activity, 5′-NH2” value was 960 nmol/mg/h and 1270 nmol/mg/h. Also, the “Activity, 5′CONH2” value in data set [10] worked out at 18 nmol/mg/h. Further, the “Activity, 5′-S-phenyl” value in [11] is 0 nmol/mg/h.

B2: M65V (protein, listed as Escherichia coli)
chain: MATPHINAEMGDFADVVLMPGDPLRAKYIAETFLEDAREVNNVRGMLGFTGTYKGRKISVMGHGVGIPSCSIYTKELITDFGVKKIIRVGSCGAVLPHVKLRDVVIGMGACTDSKVNRIRFKDHDFAAIADFDMVRNAVDAAKALGIDARVGNLFSADLFYSPDGEMFDVMEKYGILGVEMEAAGIYGVAAEFGAKALTICTVSDHIRTHEQTTAAERQTTFNDMIKIALESVLLGDKE
For the molecule B2, in data set [12], the “Activity, allo-met” value is 320 nmol/mg/h and 163 nmol/mg/h. For the same molecule, in data set [3], the “Activity, MeP-dR” value is 524,000 nmoles/mg/hour and 281,000 nmoles/mg/hour; the “Percent of Control Activity, MeP-dR” value is 42%. Moreover, in [3] (substrates MeP-dR and F-araA, Table I), the “activity toward substrates MeP-dR and F-araA (in words)” value is listed as “retained some appreciable level of activity”. Further, the “Percent of Control Activity, F-araA” value in data set [6] came to 37%. Moreover, the “Activity, allo-acet” value in data set [8] stood at 0 nmol/mg/h. In addition, the “Activity, 5′-NH2” value in [9] is 760 nmol/mg/h and 1150 nmol/mg/h. For the same molecule, the “Activity, 5′-S-phenyl” value in [11] turned out to be 0 nmol/mg/h.
